How the values were obtained:
Settings in all cases: chain copies: 2 heavy + 2 light chains (inferred); label: 5'-biotin; stem-loop (predicted)
[1] = biological target: T1, mouse IgG3 (subtype 3 IgG antibody) (Mus musculus, UniProt P03987-2 P03987-2:1-329); assay: SPR; BIACORE 3000, 1:1 Langmuir
Description: (§1) The analysis of binding was performed using BIACORE 3000 (produced by GE Healthcare) according to its instruction manual. Further, from the signal intensity (RU: Resonance Unit) measured using the BIACORE, the analysis was performed with 1:1 Langmuir binding model using BIAevaluation software, and the dissociation constant between each of the aptamers and each of the mouse IgG antibodies was obtained. The conditions, method, and the like of the measurement using the BIACORE were according to the following documents.
(§2) The experiment was performed in the same manner as in Example 2 except that MIG-m034, MIG-m035, MIG-m036, MIG-m037, and MIG-m040 were used as aptamers. FIGS. 8 to 10 are graphs showing the change in the signal intensity over time and respectively show the result obtained using the subtype 1 mouse IgG, the result obtained using the subtype 2a mouse IgG, and the result obtained using the subtype 3 mouse IgG. […] The results summarized in Table 3 tell that these aptamers each have high general versatility as a secondary antibody reagent and are good in the binding force. Further, since it was considered that the base pair in the stem region and U adjacent thereto are not involved in the binding of mouse IgG from Example 1, a clone having a systematic modified base was produced to obtain the Kd value. Since all the clones have substantially the same binding force to each of the mouse antibody subtypes, it was considered that the stem region was not involved in the binding with respect to all the subtypes and also that all the aptamers have the same binding mode to each of the subtypes.

[2] = biological target: T2, mouse IgG2a (subtype 2a IgG antibody) (Mus musculus, UniProt P01863 P01863:1-330); assay: SPR; BIACORE 3000, 1:1 Langmuir
Description: as §1, §2

[3] = biological target: T1, mouse IgG3 (subtype 3 IgG antibody); assay: SPR; BIACORE 3000, 1:1 Langmuir; remark: listed apart in the source
Description: as §1
(§3) FIGS. 5 to 7 are graphs showing the change in the signal intensity over time. […] Further, in each of the graphs, the vertical axis indicates the signal intensity (RU) measured using the BIACORE and the horizontal axis indicates the analysis time (sec). In the horizontal axis, "100 seconds" is the time when the injection of a target to be analyzed to a flow cell at the flow rate of 20 μL/min is started. The injection was maintained for 2 minutes (120 seconds), and then a running buffer was sent for 3 minutes (180 seconds) to obtain the sensorgrams showing the interaction between the aptamers and IgG. The global fitting analysis was performed and the sensorgrams were obtained under different target concentration conditions for obtaining correct Kd values.

[4] = biological target: T2, mouse IgG2a (subtype 2a IgG antibody); assay: SPR; BIACORE 3000, 1:1 Langmuir; remark: listed apart in the source
Description: as §1, §3

[5] = biological target: T1, mouse IgG3 (subtype 3 IgG antibody); assay: SPR; second measurement (Example 3)
Description: as §1
as §2, with “Since all the clones have substantially the same binding force to each of the mouse antibody subtypes, it was considered that the stem region was not involved in the binding with respect to all the subtypes and also that all the aptamers have the same binding mode to each of the subtypes.” left out

[6] = biological target: T2, mouse IgG2a (subtype 2a IgG antibody); assay: SPR; second measurement (Example 3)
Description: as §1
as §2, with “Since all the clones have substantially the same binding force to each of the mouse antibody subtypes, it was considered that the stem region was not involved in the binding with respect to all the subtypes and also that all the aptamers have the same binding mode to each of the subtypes.” left out

T1 sequence (P03987 other isoform, or with tags, fused parts or gaps): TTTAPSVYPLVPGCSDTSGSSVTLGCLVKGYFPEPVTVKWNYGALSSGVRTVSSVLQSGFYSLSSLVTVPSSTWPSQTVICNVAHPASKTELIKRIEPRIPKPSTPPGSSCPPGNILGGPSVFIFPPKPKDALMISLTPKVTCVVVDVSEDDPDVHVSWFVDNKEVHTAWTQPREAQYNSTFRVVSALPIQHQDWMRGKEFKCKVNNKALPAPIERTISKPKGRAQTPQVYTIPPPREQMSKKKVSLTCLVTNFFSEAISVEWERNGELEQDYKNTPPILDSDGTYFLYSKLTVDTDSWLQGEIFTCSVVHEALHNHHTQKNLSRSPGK
T2 sequence (P01863 whole entry, one chain of several): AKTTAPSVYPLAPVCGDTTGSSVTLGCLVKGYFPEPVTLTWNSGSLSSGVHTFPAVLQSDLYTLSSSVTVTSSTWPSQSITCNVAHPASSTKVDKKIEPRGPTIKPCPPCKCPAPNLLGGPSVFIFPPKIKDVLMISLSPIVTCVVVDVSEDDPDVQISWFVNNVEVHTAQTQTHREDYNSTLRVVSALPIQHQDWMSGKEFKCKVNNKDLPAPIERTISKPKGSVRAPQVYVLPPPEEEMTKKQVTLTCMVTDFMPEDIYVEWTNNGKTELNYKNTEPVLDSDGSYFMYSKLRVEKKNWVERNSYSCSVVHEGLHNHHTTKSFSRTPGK

Row | Binder | Kd [1] | Kd [2] | Kd [3] | Kd [4] | Kd [5] | Kd [6]
1 | AAAAAGCGCUGAAGAGAAGACGGAAGGAGACGAAGCGC (mixed, RNA with 5'-dA5 (1-5), DNA at G6 C7 G37 C38) [MIG-m036] | 13.8 nM | 4.61 nM |  |  |  | 
2 | AAAAAGCGCUGAAGAGAAGACGGAAGGAGACGAAGCGC (mixed, RNA with 5'-dA5 (1-5), DNA at 6-9 and 35-38) [MIG-m037] | 9.85 nM | 3.7 nM |  |  |  | 
3 | AAAAAGCGCUGAAGAGAAGACGGAAGGAGACGAAGCGC (mixed, RNA with 5'-dA5 (1-5), 2'-OMe U10) [MIG-m040] | 3.46 nM | 1.23 nM |  |  |  | 
4 | AAAAAGCGCUGAAGAGAAGACGGAAGGAGACGAAGCGC (mixed, RNA with 5'-dA5 (1-5), DNA at 6-9 and 35-38, 2'-OMe U10) [MIG-m041] |  |  | 8.4 nM | 0.959 nM |  | 
5 | AAAAACGCUGAAGAGAAGACGGAAGGAGACGAAGCGT (mixed, RNA with 5'-dA5 (1-5), LNA at C6 G7 C35 G36, 3'-dT37) [MIG-m034] |  |  | 8.8 nM | 0.995 nM | 8.33 nM | 1.09 nM
6 | AAAAACGCUGAAGAGAAGACGGAAGGAGACGAAGCGT (mixed, RNA with 5'-dA5 (1-5), LNA at C6 G7 C35 G36, 2'-OMe U9, 3'-dT37) [MIG-m042] |  |  | 5.57 nM | 0.436 nM |  | 
7 | AAAAAGCUGAAGAGAAGACGGAAGGAGACGAAGCT (mixed, RNA with 5'-dA5 (1-5), LNA at G6 C7 G33 C34, 3'-dT35) [MIG-m035] | 139 nM | 1.92 nM |  |  |  | 
